From US10155811B2, “APLNR modulators and uses thereof” (Regeneron Pharmaceuticals, Inc., priority 2013, dated 2018) come the findings set out here.

Values joined by “and” are separate entries in the source; they are usually repeats but may differ in a detail not shown here. Equal values may be shown once. “Also recorded” adds a separate entry of the source.

In experiment [1] the target is T1, hAPLNR (Homo sapiens, UniProt P35414).
T1 sequence (P35414 1-380): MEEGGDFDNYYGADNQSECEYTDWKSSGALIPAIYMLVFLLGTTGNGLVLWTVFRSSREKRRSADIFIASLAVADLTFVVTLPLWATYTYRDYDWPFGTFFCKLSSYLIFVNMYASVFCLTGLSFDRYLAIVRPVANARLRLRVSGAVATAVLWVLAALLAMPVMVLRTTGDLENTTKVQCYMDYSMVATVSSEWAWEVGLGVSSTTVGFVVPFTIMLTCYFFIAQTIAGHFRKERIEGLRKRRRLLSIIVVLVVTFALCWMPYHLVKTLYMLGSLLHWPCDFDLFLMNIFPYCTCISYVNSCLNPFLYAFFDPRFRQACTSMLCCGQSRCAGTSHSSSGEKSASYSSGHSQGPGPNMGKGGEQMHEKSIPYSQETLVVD
Description: CRE assay of modified apelin peptides in HEK293/CRE-luc/hAPLNR cells. More on the design: expressed in transfected cells. Format: cell-based. How it is done:
Briefly, an HEK293 cell line was transfected to stably express the full-length human hAPLNR (amino acids 1-380 of accession number NP_005152.1), along with a luciferase reporter [cAMP response element (CRE,4X)-luciferase]. […] After 5 hours of incubation at 37° C. in 5% CO2, luminescence was measured following the addition of One Glo reagent (Promega, #E6051) using a Victor X instrument (Perkin Elmer). The data were fit by nonlinear regression to a 4-parameter logistic equation with Prism 5 software (GraphPad).

Experiment [2] addresses T1, hAPLNR. Nature of the experiment: CRE-luciferase cyclic AMP assay, activation of hAPLNR (inhibition of Forskolin-induced cAMP) in HEK293/CRE-luc/hAPLNR cells. Format: cell-based. Details: expressed in transfected cells. As to conditions: without Apelin, % of maximum Apelin activation. How it is done:
The ability of anti-APLNR antibodies to activate hAPLNR-mediated cell signaling was measured using a cyclic AMP assay. The hAPLNR is a 7-transmembrane G-protein coupled receptor (GPCR).
The resulting cell line, HEK293/CRE-luc/hAPLNR, was maintained in DMEM containing 10% FBS, NEAA, pencillin/streptomycin, and 100 μg/mL Hygromycin B.
Testing of antibodies included a no antibody control.
The results of all assays were analyzed using nonlinear regression (4-parameter logistics) within Prism 5 software (GraphPad).

Experiment [3] deals with T1, hAPLNR. Nature of the experiment: retinal vascular development (RVD) model in humanized APLNR mouse pups. Type of experiment: in vivo. Details: from tissue; host or cells: developing retina of humanized APLNR mouse pups (75% C57BL6 / 25% Sv129), in vivo. How it is done: A retinal vascular development (RVD) model was used to evaluate the effects of an antagonistic anti-APLNR antibody on blood vessel outgrowth in the normal developing retina of mouse pups that were of a mixed background strain (75% C57BL6 and 25% Sv129) and homozygous for expression of human APLNR in place of mouse APLNR (humanized APLNR mice). Pups were subcutaneously injected on postnatal day 2 (P2) with either 50 mg/kg of an anti-APLNR antagonist antibody, H2aM9232N, or an irrelevant human Fc (hFc) control. Reagents were masked and labeled as Solution A and Solution B to prevent experimenter bias. At postnatal day 5, tissue samples were collected and then fixed in PBS containing 4% paraformaldehyde. Fixed tissue samples were washed with PBS three times for 15 minutes, and subsequently stained with GS Lectin I (Vector Laboratories, #FL-1101) diluted 1:200 in 1×PBS containing 1% BSA in 0.25% Triton-X 100 overnight at 25° C. to visualize retinal vasculature. The following day, stained samples were rinsed with PBS three times for 15 minutes each, flat-mounted onto slides, and coverslips were subsequently mounted using Prolong Gold (Invitrogen, #P36930). Images were taken at 20 times magnification using an epi-fluorescent microscope (Nikon Eclipse 80). The vascularized areas in the retina were measured from acquired images from this assay using Adobe Photoshop CS6 extended. Statistical differences between the results obtained from the IgG control antibody and H2aM9232N treated samples were assessed using a two tailed, unpaired Student T-test (**, p<0.001). Only after retinal vasculature area measurements and statistical analysis were completed, the sample identities were unmasked.

The test system of experiment [4] is HEK293 parental cells. Description: FACS binding to HEK293 parental cells. As to conditions: Table 3; 10 μg/mL antibody; anti-mouse IgG Alexa 647. How it is done:
Binding ratios for human APLNR binding to purified anti-APLNR monoclonal antibodies were determined by a fluorescence-activated cell sorting (FACS) binding assay. […] The resulting stable cell lines, HEK293/CRE-luc/hAPLNR and HEK293/CRE-luc/MfAPLNR, were maintained in DMEM containing 10% FBS, NEAA, and penicillin/streptomycin with either 100 μg/mL Hygromycin B for hAPLNR cells or 500 μg/mL G418 for MfAPLNR cells.
For the FACS analysis, HEK293 parental, HEK293/CRE-luc/hAPLNR, and, HEK293/CRE-luc/mfAPLNR cells were dissociated using Enzyme Free Dissociation reagent (#S-004, Millipore, Billerica, Mass., USA) and 10^6 cells/well were plated onto 96-well v-bottom plates in PBS containing 1% FBS. […] Cells were then filtered and analyzed on Accuri Flow Cytometer (BD Biosciences, San Jose, Calif., USA). Unstained and secondary antibody alone controls were also tested for binding to all cell lines. […] Geometric mean (Geom. mean) of fluorescence for each antibody was then normalized to geometric mean of unstained cells to obtain relative binding of antibody (binding ratios) per each cell type: HEK293 (parental), HEK293/CRE-luc/hAPLNR and HEK293/CRE-luc/MfAPLNR.
A general note: Flow cytometry measures light scatter and fluorescence of single cells or particles in a stream.

Consider `CSCC[C@H](NC(=O)[C@@H]1CCCN1C(=O)CNC(=O)[C@H](CCCCN)NC(=O)[C@H](Cc1c[nH]cn1)NC(=O)[C@H](CO)NC(=O)[C@H](CC(C)C)NC(=O)[C@H](CCCNC(=N)N)NC(=O)[C@@H]1CCCN1C(=O)[C@H](CCCNC(=N)N)NC(=O)[C@@H](N)CCC(N)=O)C(=O)N1CCC[C@H]1C(=O)N[C@@H](Cc1ccccc1)C(=O)NCC(=O)NCC(=O)NCC(=O)NCC(=O)NCC(=O)O` [Apelin-13 + 5G], for which the “efficacy in the CRE assay relative to apelin-13” value in experiment [1] is listed as “retain full efficacy”.

B1: H2aM9232N: antagonistic anti-APLNR antibody, HCVR/LCVR SEQ ID NO: 98/106, mouse IgG2a Fc (antibody, V domains shown)
VH: QVKLVESGGGVVQPGRSLRLSCAASGFTFSNYVIHWVRQAPGKGLEWVAVIWYDGSNKYYADSVKGRFTISRDNSKNTLYLQMNSLRAEDTAVYYCARDRVVRGVDYYYYYGLDVWGQGTSVTVSS
VL: EIVMTQSPATLSVSPGERATLSCRASQSVRSNLAWYQQKPGQAPRLLIYGASSRATGIPARFSGTGSGTEFTLTISSLQSDDFAVYYCQQYNKWPRTFGQGTKVEIK
modifications: mouse IgG2a Fc
B1: the “% Activation at 100 nM mAb (at 10 uM Forskolin)” value in experiment [2] (Table 6A) was “No Activation”. Besides, in experiment [2] (Table 6B), the “% Activation at 500 nM mAb (at […] Forskolin)” value is given as “did not demonstrate any measurable activation; also recorded: No Activation”. The “Retinal blood vessel outgrowth (mm^2), MEAN” value in experiment [3] (group mean, 50 mg/kg subcutaneous at P2, measured at P5) is 2.84 mm^2. Besides, the “Retinal blood vessel outgrowth (mm^2)” value in experiment [3] (individual eyes (OD/OS), 50 mg/kg subcutaneous at P2, measured at P5, 50 mg/kg) is 2.49 mm^2 and 3.04 mm^2 and 3.57 mm^2 and 3.32 mm^2 and 2.23 mm^2 and 2.36 mm^2. For the same molecule, the “mean reduction in retinal blood vessel outgrowth compared to control (hFc)” value in experiment [3] (single subcutaneous injection 50 mg/kg, postnatal day 5) is “approximately 30%”. For the same molecule, in experiment [4], the “Binding Ratio of Geom. Mean to Unstained Cells, HEK293 Parental” value was 6.
